{
  "source": "the DeepSol protein solubility set",
  "data": [
    {"assay": "soluble on expression in E. coli; label from the status in PepcDB or PDB records", "values": [
      {"sequence": "MSERVSEEPGLDKGDRAEECELDDPELKAIRMRVREMEEEAERLKGLSGQDKSIGVSTRPCMQTTHSKMTAGAYTEGPPQPLSAEEKKEIDKRSVYVGNVDYGSTAQDLEAHFSSCGSINRITILCDKFSGHPKGYAYIEFAERNSVDAAVAMDETVFRGRTIKVLPKRTNMPGISSTDRGGFRGRPRGNRGNYQRGQRPRGRPFRGRGRPGPLNNPY", "soluble on expression in E. coli": "soluble"},
      {"sequence": "MSISFEKLRITLKSVGVPVTRDKAEKGTDYPYIVYSNVSQGKKMASSKVHRRMPYYQISFYTTGTEKDLIALENALEEAGIPYTDFVGIQGDENDDTVTNFYTYVRCIEDGK", "soluble on expression in E. coli": "soluble"},
      {"sequence": "MKLMDVHVLFSGGKDSSLSAVILKKLGYNPHLITINFGVIPSYKLAEETAKILGFKHKVITLDRKIVEKAADMIIEHKYPGPAIQYVHKTVLEILADEYSILADGTRRDDRVPKLSYSEIQSLEMRKNIQYITPLMGFGYKTLRHLASEFFILEEIKSGT", "soluble on expression in E. coli": "not soluble"},
      {"sequence": "MEPDIEPWDRFRDWLHCICVVTFDLELGQALEVIYPGDAILSNTEKINICYLAFPDSNSSNARDTNFHFRIRRAISDVRDCQKSFVDKSPTSLPFDTHYLYGFVHFRQCKDPTIHRGYYQKSIVLMSVLPLFSLFYSVTARIAEHFFESGEAAIEAACHHIDTWQQPHAGRTIELPLLGTLISCRLPAACDLPYEFRLDGHVELSDDDSQRLVRPDFTTSIVQHVHHLPLLWELVLLGEPLLIVAPTPSITSALVQSIVGLLSPLRIVNDFRPYFTIHDSEFREYSSKSRSPPRVILGVTNPFFIKALDHWPHILKVAEQGAEIGGDDMKKPKKTWSSSRTLDTPAGLYTQYKPFLSKDKSLAKKLLRSGNSLEVQHNILQRHFLELTHSFMIPMERYLSSLMPLKKEMSPFKGIPSTRPFSMDDFLATLETNGGPSLTCGTKGDWQGLYRRFITCSNFGGWLSMRSRDVNAQLKTHYVEALCSADFCSQTLATKHNVEIVDLVLRIRERIIECPPDTEIRRNLVRQVVKILSNVDDDLKQLLMSNCSLREILA", "soluble on expression in E. coli": "not soluble"},
      {"sequence": "MSLYKLIALDMDGTLLNDDKIISKRNKEAIKKAKNLGYKVVLSTGRPLKGVERYLKELDLVNDDDYAIAFNGGLVQNTKTGEVLGKELMKFEDLDRLYKLSQKFNVNIHMLSINECITPKKNPYTEVEVNINQIPLIEKNFNELPHDTVIVKIMMIDSKEKLDKVEKLLPKEIYDDYSVARSSDIFLEFSPKGVHKGVGLKILSEHLNLKKEELIAVGDAGNDIAMIEYAGLGVAMGNAFPYVKESADYVTDNNETHGVAKVIEKFMLNEGHHHHHH", "soluble on expression in E. coli": "soluble"},
      {"sequence": "MDEEYDAIVLGTGLKECIISGMLSVSGKKVLHIDRNNYYGGESASLTPLEQLYEKFHGPQAKPQQEMGRGRDWNVDLIPKFLMANGPLVKLLIHTGVTRYLEFKSIEASFVVKGGKIYKVPADEMEALATSLMGMFEKRRFKKFLVWVQQFDENKEDTWQGLDPHNSTMQQVYEKFGLDENTADFTGHALALYRDDEHKNQPYAPAVEKIRLYSDSLARYGKSPYLYPLYGLGELPQGFARLSAIYGGTYMLDKPVDEIVMENGKAIGVKCGDEIVRGKQIYCDPSYAKDRVKKTGQVVRAICLLNHPIPNTNDAQSCQIIIPQKQVGRHYDIYISCCSNTNMVTPKGWYLAMVSTTVETANPEAEVLPGLQLLGAIAEKFIQISDVYEPSDLGSESQIFISQSYDATTHFETTCKDVLNMFERGTTKEFDFTNITHLSLNDQE", "soluble on expression in E. coli": "not soluble"},
      {"sequence": "MAVLSFSFGGEITLKKPPESLKKYYPPASEKFEFLNNMHTMSTAFYAVQLNINDENWEKAKEWAQKLVKTYRETAEMVPEWKDYFDFSKADAYLNAVSSKNVDAVIKTARELGQTCAKCHRDNEVAVKIYYHFPDFHSVKVEDPIEFMEMDLGDFMKKLANSLKATNIYISQGEYEKAKEHGINFVERARAVKETCTKCHTKEAEVEAITGKEYDQALKALENLFNAEKLDTQKVAQNMKKVTVTCYTCHNVHLIPAKIKEALAK", "soluble on expression in E. coli": "not soluble"},
      {"sequence": "MQGQHPPAELPSLRRQKILLLLERDGKVMAAELSRHFAVSEDTIRRDLAELDAGGLVQRVHGGALPRPKDSGKDYFTRVGETNEAKLRLAQYAVQWVQDGQTVLFDSGSTTLHIAQSLPAGISLTAVTASPMIAVALAEYPKVRVILAGGQLNPATLSASGHEALRMIQGIKADLMFTGVCAIHPEIGISSLHFDEVPIKQAMFDSASEVIAVTTADKLGAMEPFVVVPCNRLHRLVTEQEAPGVDIEGYRQLGIEVLQVLEHHHHHH", "soluble on expression in E. coli": "not soluble"},
      {"sequence": "AHHHHHHGSGNNTEVIKMVEVRLENLTKKFGDFTAVNSLNLTIKDGEFLVLLGPSGCGKTTTLRMIAGLEEPTSGKIYFGDRDVTYLPPKDRNVSMVFQSYAVWPHMTVYENIAFPLKIKKYPKDEIERRVKWAAELLQIEELLDRYPAQLSGGQRQRVAVARAIVVEPDVLLMDEPLSNLDAKLRVAMRAEIKKLQQKLKVTTIYVTHDQVEAMTMGDRIAVMNRGKLLQVGSPTEVYLNPNSVFVATFIGAPEMNILEVSVGEGYLEGEGFKIELPDDIMEALRNYIGKTVLFGIRPEHMVIEGISELAHMRRTAKIKGVVDFVEALGTDTIVHVRFEESIIKVKLPGHIPLEIGKEVSVLIDLDKIHIFDKNSEKAII", "soluble on expression in E. coli": "soluble"},
      {"sequence": "MGSSHHHHHHNYNIPTTENLYFQGHMNIGLLEALDQLEEEKGISKEEVIPILEKALVSAYRKNFGNSKNVEVVIDRNTGNIKVYQLLEVVEEVEDPATQISLEEAKKIDPLAEVGSIVKKELNVKNFGRIAAQTAKQVLIQRIRELEKEKQFEKYSELKGTVTTAEVIRVMGEWADIRIGKLETRLPKKEWIPGEEIKAGDLVKVYIIDVVKTTKGPKILVSRRVPEFVIGLMKLEIPEVENGIVEIKAIAREPGVRTKVAVASNDPNVDPIGACIGEGGSRIAAILKELKGEKLDVLKWSDDPKQLIANALAPATVIEVEILDKENKAARVLVPPTQLSLAIGKGGQNARLAAKLTGWKIDIKPIMNL", "soluble on expression in E. coli": "soluble"},
      {"sequence": "MFLDMLSLIRGQKIKLNDALQGQSSFYIQIHYQAAFDLDIASFGLDSQYRLSDERYMTFYNQPETPCQAVRLIENQNKCSRFLVDLAKLPATIQHLVLTAAIDGQNIMSQLQQVTVQILNLQLQPIAELKLDASIFDQERATMLIEIYRKEGIWRLAAIGQGFNAGLAALIQHFGGEVAEEPTAQQTTPVAPQSNIDLKKKLSLQKAEKTGNASIIDLTKKSLVQLEKKKLLGVTARVALVLDASGSMDGQYRRGDVQKVVNRLMPLAIHFDDDGSFECWAFAAETTQLDDVTLSNVNDFINSTQRGWKNWQVGARYNEEIPAIEAVINYFQKFQDQIPTYVLFISDGGVGSRRQMQKILSQAAKLPIFWQFVGIGGRNYGALEKLDEMSGRIVDNCNFFSLDRIDGVSDERLYELLLQEFPDWLIAARQHQIVRNLEHHHHHH", "soluble on expression in E. coli": "not soluble"},
      {"sequence": "MAAPAALKRISATVWELPVSYKKGMLVPARIIATEKLINAMDAGVFEQVSNVACLPGIQKYAFCMPDGHWGYGFPIGGLAAMDPETGVISPGGIGFDINCGMRLVLTTLTYEEVKPRLRELVDALFYRVPAGVGSHGFVRLSHDEFCRVAEQGSSWCLKHGYAWPEDLEMTEEHGCFTGADATKVSQRAVDRGYNQIGTLGSGNHYLEVQVARPENIFDEDTARAFGITVPNQVVIMFHCGSRGFGHQVATDYLQLFLSVMEKKYGIRTNDRELACAPFRSREGQDYFAAMKCAVNMAFANRQVILHRIREVFSDVFGRDPGDLGMDMVYDVAHNTAKLETHLVDGKKRELLVHRKGATRAFGPGMEGIPARYRETGQPVIIGGSMETGSYLLAGDPGGGDTFFTTAHGSGRTMSRHQAKKLIKGQKLQRDMEERGIYVRTASWGGLAEEAGQAYKNIDDVAEATELSHLSRRVARLVPIGNVKGLEHHHHHH", "soluble on expression in E. coli": "not soluble"},
      {"sequence": "MSLFLSNVILHQLRKNDNDELVVNYRAESLRNDTSTENLVAELHRVFNAKAGKGFGCFKSDSEFQLWLQEMRRGTLPFYEFSQQSAQRLKNELAKYPFADEGILVMAEYQSLATDYLFIGLLPLNQSLKVTEGLDISATDYLDINKMDIVARIDLSSYETDKESKRYLSYIKGRVGRKVADFFLDFLQADIGLDTKQQNQVLMQAVEDFCADAKFEKEEVISYKKQVYEYCNDQIKAGDEVRVQELSGELPPSNEGVNFFDFTREQGYQLEESFPADRSTVRKLTKYVGAGGGLNLSFDSLLLGERVFYDPETDTLTIKGTPPNLRDQLTRLRLEHHHHHH", "soluble on expression in E. coli": "soluble"},
      {"sequence": "MTGTYTELIEGSERLSGLTDVDEVIKDLSRLLRKLVKTRWIAVYFFDRERRDFAPARSTGLPASFLPVFREMPLAPDKIPLLKSMLRKRQHLMLTDPGSSDLLTPKLRKLLRNLCVLAVPMVVRTQVIGAVFMARTRDNPPFSDAETAIIRDLVSHAALVVSHMQLFDE", "soluble on expression in E. coli": "not soluble"},
      {"sequence": "MRRVNILCSFALLFASHTSLAVTYPLPPEGSRLVGQSFTVTVPDHNTQPLETFAAQYGQGLSNMLEANPGADVFLPKSGSQLTIPQQLILPDTVRKGIVVNVAEMRLYYYPPDSNTVEVFPIGIGQAGRETPRNWVTTVERKQEAPTWTPTPNTRREYAKRGESLPAFVPAGPDNPMGLYAIYIGRLYAIHGTNANFGIGLRVSQGCIRLRNDDIKYLFDNVPVGTRVQIIDQPVKYTTEPDGSNWLEVHEPLSRNRAEYESDRKVPLPVTPSLRAFINGQEVDVNRANAALQRRSGMPVQISSGSRQMF", "soluble on expression in E. coli": "not soluble"},
      {"sequence": "MNVYNKADSFSLESDSIKDVIHDYICWLSMTDETRPSIGNVFTAMETFKIDAVRYYDGNIYDLAKDINTMSFDSFIRSLQNITSKKDKLTVYGTMGLLSIVVDINKGRDVSNIKFAAGIIILMEYIFDDTDLSHLKIALYRRIQRRYPIDDDR", "soluble on expression in E. coli": "not soluble"},
      {"sequence": "MAHHHHHHMRKKKTKDVPTVFIECALEGEGEKLCVRWLFGMGVGGKPYDADEYDATIVWVPSDYAFHGDKFTSPLRPIPTKNPVAVVRIPVYLCRKKALRSCGGNPMLLSVYGSYGECCDVVFENERLSLLDRGFVWGFAAVCGGSELGAAWHKAGCGLQRATSVNDFVSVSFYVQETGWCAAGQIVTHGSSAGVFVATAAMCVAPSLPLAVIALVPCVDCLTTLMDDSLPLTVSNWEEFGNPRDDADAYRLLRAMLPMDNIPSVGVALPHMLLLTAWHDTRVGFWESLAFTARLRAREMEEGAATR", "soluble on expression in E. coli": "soluble"},
      {"sequence": "MAIFSRTKRVTDPLDDDAKARILSSHSYILDQDSPRLCELVHGFLEDGPEESFYDSDPDLSETSSAEHSGEASVEIVRMAVSFSDSDPYRNLLLAHVLRAVEVYSGFRSRNKTVFRDKVASFLRELGHDAAVCVSKWTSSSKLIAGSYHFIDVVHKPSDNDQKAVRYLVDLDFASEFEIARPTREYTRGLQLLPNVFVGNEENLRTIVRESCDAAKRSMKSRGLSLPPWRRSSYLQHKWFGPYKRKVGSSLGVKPLNSDAVSCRSLGFDDGAVNTRLFIRA", "soluble on expression in E. coli": "soluble"},
      {"sequence": "MSLEQSDRDRPLADRMRPRTLDEFAGQEHILAPGKPLRVQIDRDDIGSLIFWGPPGVGKTTLAKIIAAMTHADFIEFSAVLSGIKEIKQVMADAERVRQYGTRTILFVDEIHRFNRAQQDAFLPHVERGNIKLIGATTENPSFEVNSALLSRSRVYTLTPLTEEQIVGLLRRALTDTERGLAELHVTAEDIALARIAAYASGDARSGYNVLEVAAQAAGATSERIITEQIVADALQRRVLRYDKSGEEHYNLISALHKSVRNSDPDAALYWLARMIESGEDALYIARRVVRMAVEDIGLADPNALALTLAAKDAIDFLGMPEANLALAQAVVYLSIAPKSNALYTAYGDVQADVEKTAADPVPLHLRNAPTKLMKEIGYGSGYQYAHDLEAKVADMQCLPDNLKDRVYYHPTDQGIEQRIRTRLEEIRREGHHHHHH", "soluble on expression in E. coli": "soluble"}
    ]}
  ]
}
